Residue numbers refer to the chain shown, from its start.
B1: cr884 (nucleic acid)
guide: GTTTAAGAGCTAAGCTGGAAACAGCATAGCAAGTTTAAATAAGGCTAGTCCGTTATCACCTAGAAATAGGGTCACCGAGTCGGTGAT
modifications: listed as DNA, chemistry not fully specified
B2: cr135 (nucleic acid)
guide: GTTTAAGAGCTAAGCTGGAAACAGCATAGCAAGTTTAAATAACGCTAGTCGGTTATCAAATTGAAAAATTGGCGCCGAGTCGGCGCT
modifications: listed as DNA, chemistry not fully specified
B3: cr515 (nucleic acid)
guide: B2 guide with G18T, C43G, G51C, A60C, T69G, G74A, C84T
modifications: listed as DNA, chemistry not fully specified
B4: cr540 (nucleic acid)
guide: B2 guide with G33C, C43T, G51A, A60C, T69G, G74A, C84T
modifications: listed as DNA, chemistry not fully specified
B5: cr797 (nucleic acid)
guide: B2 guide with C43G, G51C, T54G, A60C, T69G, G74A, C84T
modifications: listed as DNA, chemistry not fully specified
B6: cr942 (nucleic acid)
guide: B2 guide with C43G, G51C, T56C, A60C, A66C, T69G, G74A, C84T
modifications: listed as DNA, chemistry not fully specified
B7: cr790 (nucleic acid)
guide: B2 guide with G33C, C43G, G51C, A60C, T69G, G74A, G77A, C81T, C84T
modifications: listed as DNA, chemistry not fully specified
B8: cr990 (nucleic acid)
guide: B2 guide with G29T, T34C, C43G, G51C, C57G, A60C, T69G, G74A, C84T
modifications: listed as DNA, chemistry not fully specified
B9: cr118 (nucleic acid)
guide: B2 guide with A23G, C43G, G51C, A60C, T69G, G74A, C84T
modifications: listed as DNA, chemistry not fully specified
B10: cr056 (nucleic acid)
guide: B2 guide with T3G, A5C, C43G, G51C, A60C, T69G, G74A, C84T
modifications: listed as DNA, chemistry not fully specified
B11: cr583 (nucleic acid)
guide: B2 guide with A41C, C43G, G51C, G52A, A58T, A60C, T69G, G74A, C84T
modifications: listed as DNA, chemistry not fully specified
B12: cr610 (nucleic acid)
guide: B2 guide with C43G, G51C, A60G, T61A, A68T, T69C, G72A, G74A, C84T, C86T
modifications: listed as DNA, chemistry not fully specified
B13: cr551 (nucleic acid)
guide: B2 guide with A26T, C43G, G51C, A60C, T69G, G74A, C84T
modifications: listed as DNA, chemistry not fully specified
B14: cr661 (nucleic acid)
guide: B2 guide with G29A, C43G, G51C, G52C, A60C, A66T, T69G, G74A, C84T
modifications: listed as DNA, chemistry not fully specified
B15: cr784 (nucleic acid)
guide: B2 guide with C43T, G44C, C50T, G51C, A60C, T69G, G74A, C84T
modifications: listed as DNA, chemistry not fully specified
B16: cr434 (nucleic acid)
guide: B2 guide with C43G, G51C, A60C, G63C, A65T, T69G, G74A, C84T
modifications: listed as DNA, chemistry not fully specified

Tested on: K562 CRISPRi cells
Experiment: Constant region variant library pooled growth screen, K562
Assay type: cell-based, human
Conditions: sgRNA constant region variants
How it was run: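 Cells were selected with puromycin for 2 days and then kept in RPMI-1640 spinner cultures, with duplicates handled separately. Targeting sequences comprised 3 sgRNAs per essential gene for 10 genes plus six non-targeting controls. Activities were normalized against pairing with the unmodified scaffold.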

[1] = relative to the original, un-modified constant region cr995 (= 1)
[2] = activity relative to the original, un-modified constant region cr995

| Molecule | Mean relative activity [1] | Mean relative activity [2] |
| --- | --- | --- |
| B1 | 1.027 | – |
| B2 | – | −0.00878 |
| B3 | – | 1.027 |
| B4 | – | −0.0122 |
| B5 | – | 1.027 |
| B6 | – | 1.087 |
| B7 | – | −0.01697 |
| B8 | – | −0.0163 |
| B9 | 1.025 | – |
| B10 | – | −0.009512 |
| B11 | – | −0.01013 |
| B12 | 1.027 | – |
| B13 | – | −0.109 |
| B14 | – | −0.01151 |
| B15 | – | −0.01213 |
| B16 | – | 1.027 |
